Test results as given in PMC5027616, “IL-13Rα2 uses TMEM219 in chitinase 3-like-1-induced signalling and effector responses” (Nature Communications, 2016).

Biological target: T1, IL-13Rα2-Chi3l1 complexes (labelled) (UniProt Q14627 27-343; P36222 22-383, BODPY-TRM-X-succinimidyl ester label)
T1 construct: IL-13 receptor alpha 2, ectodomain; as m13; chitinase 3-like-1; as m12; The legend calls the complexes labelled; also called IL-13Rα2 complexed with Chi3l1; source: both proteins from the baculovirus-insect cell expression system, purified; complex formed before the titration
T1 sequence (Q14627 27-343, chain 1 of 2): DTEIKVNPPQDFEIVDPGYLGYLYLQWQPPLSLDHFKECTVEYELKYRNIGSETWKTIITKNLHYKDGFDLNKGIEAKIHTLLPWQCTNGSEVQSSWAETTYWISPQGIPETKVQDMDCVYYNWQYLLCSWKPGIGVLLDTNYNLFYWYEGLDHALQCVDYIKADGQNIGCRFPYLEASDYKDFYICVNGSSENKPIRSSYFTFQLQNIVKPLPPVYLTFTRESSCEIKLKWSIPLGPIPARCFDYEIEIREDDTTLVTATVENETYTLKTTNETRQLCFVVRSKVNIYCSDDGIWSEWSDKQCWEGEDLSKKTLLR
T1 sequence (P36222 22-383, chain 2 of 2): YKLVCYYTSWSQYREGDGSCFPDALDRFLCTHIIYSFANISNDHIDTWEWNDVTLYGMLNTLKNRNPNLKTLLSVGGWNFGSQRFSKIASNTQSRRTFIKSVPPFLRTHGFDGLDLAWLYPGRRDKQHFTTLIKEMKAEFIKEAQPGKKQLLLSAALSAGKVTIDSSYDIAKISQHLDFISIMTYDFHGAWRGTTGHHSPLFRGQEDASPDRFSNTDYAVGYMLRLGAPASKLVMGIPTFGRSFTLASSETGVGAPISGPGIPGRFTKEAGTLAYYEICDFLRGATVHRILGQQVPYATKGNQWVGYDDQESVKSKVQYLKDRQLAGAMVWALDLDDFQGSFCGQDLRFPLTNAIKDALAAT
Test: fluorescence polarisation; fluorescence anisotropy; serial dilutions of TMEM219 in 13 nm nanodisc (10 nM-10 μM) added to 10 nM labelled protein or complex; PBS for labelling; empty nanodisc as control
Conditions: both partners purified

B1: His-tagged human TMEM219 (natural protein, UniProt Q86XT9 39-240, looked up)
chain: SFLLTHRTGLRSPDIPQDWVSFLRSFGQLTLCPRNGTVTGKWRGSHVVGLLTTLNFGDGPDRNKTRTFQATVLGSQMGLKGSSAGQLVLITARVTTERTAGTCLYFSAVPGILPSSQPPISCSEEGAGNATLSPRMGEECVSVWSHEGLVLTKLLTSEELALCGSRLLVLGSFLLLFCGLLCCVTAMCFHPRRESHWSRTRL
notes: also called recombinant human (rh) TMEM219; rTMEM219; source: HEK293T cells (pcDNA3.1), purified (Nickel beads)
Work on B1 yielded a Kd of about 288 nM.
